Laboratory results as given in patent US20030059827A1, “Engineered protein binding domains and methods and systems for their design and use” (priority 2001, published 2003).

Target: Biotin-GG-KQTSV
Assay: micro-calorimetry (isothermal titration)

B1: wild-type PDZ (PDZ3 of PSD095) domain, Q62108 302-402 (protein, mouse, UniProt Q62108 302-402, looked up)
chain: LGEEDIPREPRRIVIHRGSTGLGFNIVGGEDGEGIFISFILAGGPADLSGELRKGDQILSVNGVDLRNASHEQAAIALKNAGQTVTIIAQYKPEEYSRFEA
B1 was tested. Which Ka did it give?
Its Ka is 25700 M⁻¹.

What about the Kd of the same binder?
The Kd was 39 µM.
